Sequences and labels used below:
T1: Arid5a ARID (Homo sapiens) (UniProt Q03989)
T1 sequence: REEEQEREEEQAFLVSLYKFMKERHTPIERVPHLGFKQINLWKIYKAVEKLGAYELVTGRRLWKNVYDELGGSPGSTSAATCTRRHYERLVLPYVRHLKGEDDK

T2: ARID49-152 K85A/Q86A (human, UniProt Q03989 49-152, K85A;Q86A)
T2 sequence: T1 sequence with K37A, Q38A

T3: Arid5a ARID49-152 (human, UniProt Q03989 49-152)
T3 sequence: T1 sequence

T4: Arid5a ARID37-183 (human, UniProt Q03989 37-183)
T4 sequence: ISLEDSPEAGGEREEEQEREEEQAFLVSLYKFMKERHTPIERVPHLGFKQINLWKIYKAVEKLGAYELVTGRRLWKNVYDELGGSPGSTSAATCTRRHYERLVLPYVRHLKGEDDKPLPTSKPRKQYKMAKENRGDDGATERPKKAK

B1: FAM-13merAT (dsDNA)
DNA 1: GCACAATATAACG
DNA 2: CGTTATATTGTGC
B2: 13merAT (dsDNA)
DNA 1: GCACAATATAACG
DNA 2: CGTTATATTGTGC
B3: RBNS-9mer-fw (ssRNA)
RNA: ACAGGCAGG
B4: RBNS-9mer-rev (ssRNA)
RNA: CCUGCCUGU
B5: Il-6 3'UTR 129 nt (structured_RNA)
RNA: GGCACAGAACUUAUGUUGUUCUCUAUGGAGAACUAAAAGUAUGAGCGUUAGGACACUAUUUUAAUUAUUUUUAAUUUAUUAAUAUUUAAAUAUGUGAAGCUGAGUUAAUUUAUGUAAGUCAUAUUUAUA
B6: FAM-13merGC (dsDNA)
DNA 1: GCCCCGCCCGCCG
DNA 2: CGGCGGGCGGGGC
B7: 19mer_ADE (Ox40 ADE) (structured_RNA)
RNA: CACACCGUUCUAGGUGCUG
B8: 13merAT_var4 (dsDNA)
DNA 1: GCACAATACGACG
DNA 2: CGTCGTATTGTGC
B9: 13merAT_var2 (dsDNA)
DNA 1: GCACGGTATAACG
DNA 2: CGTTATACCGTGC
B10: 13merAT_var1 (dsDNA)
DNA 1: GCGCAATATAGCG
DNA 2: CGCTATATTGCGC

Positions count from the first letter of the chain named.

The first data set addresses T1, Arid5a ARID (Homo sapiens). The data set can be described thus: pulldown. The note with it: 1 and 5 uM protein; 25 mM Tris pH 7.5, 150 mM KCl, 3 mM MgCl2.
In turn, CAGGCAU [7-mer CAGGCAT] gave a binding signal (RBNS z-score of enrichment R) of 4.61.
With CAGGCAA [7-mer CAGGCAA], the binding signal (RBNS z-score of enrichment R) came to 6.65.
Same read-out and setting: then CAGGCAG [7-mer CAGGCAG], with 13.
The molecule AGGCAGA [7-mer AGGCAGA] had a binding signal (RBNS z-score of enrichment R) of 6.46.
The same measure, in the same setting: then AAUAUAA [7-mer AATATAA], with 3.73.
Consider UACAGGC [7-mer TACAGGC], for which the binding signal (RBNS z-score of enrichment R) turned out to be 5.55.
Turning to AAAUAUA [7-mer AAATATA], the binding signal (RBNS z-score of enrichment R) was 4.03.
In turn, AACAGGC [7-mer AACAGGC] registered a binding signal (RBNS z-score of enrichment R) of 4.87.
Molecule ACAGGCA [7-mer ACAGGCA] yielded a binding signal (RBNS z-score of enrichment R) of 11.6.
On the same count and under the same terms, then AAAAAAA [7-mer AAAAAAA], with 3.68.
AGGCAGC [7-mer AGGCAGC] came in with a binding signal (RBNS z-score of enrichment R) of 7.71.
The same measure, in the same setting: then GCAGGCA [7-mer GCAGGCA], with 5.88.
Same read-out and setting: then AGGCAGU [7-mer AGGCAGT], with 6.38; and AGGCAGG [7-mer AGGCAGG], with 8.18.
With AAAAAUA [7-mer AAAAATA], the binding signal (RBNS z-score of enrichment R) was 3.52.

Another data set deals with T5, Arid1a extended ARID (human, UniProt O14497 999-1132). In words: EMSA; 20 mM Bis-Tris pH 6.5, 150 mM NaCl, 2 mM TCEP, 0.02% NaN3; NMR at 298 K; EMSA plus 10 mM MgCl2 and 0.6 ug yeast tRNA per 20 ul, 22-24 C. The note with it: protein: recombinant; tags: cloned in pET-Trx1a (TEV site); label: 5'-fluorescein on strand 1; blunt. Background: A gel shift assay detects complexes by their altered migration in electrophoresis.
T5 sequence (O14497 999-1132): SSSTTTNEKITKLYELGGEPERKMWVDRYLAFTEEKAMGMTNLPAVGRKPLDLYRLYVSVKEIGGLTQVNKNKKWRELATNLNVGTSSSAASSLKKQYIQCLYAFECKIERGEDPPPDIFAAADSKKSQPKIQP
As for B1, the binding result is listed as “binds”.

The target in another data set is T2, ARID49-152 K85A/Q86A. In words: NMR; 2-fold DNA; 20 mM Bis-Tris pH 6.5, 150 mM NaCl, 2 mM TCEP, 0.02% NaN3; NMR at 298 K; EMSA plus 10 mM MgCl2 and 0.6 ug yeast tRNA per 20 ul, 22-24 C. Conditions: protein: recombinant; tags: cloned in pET-Trx1a (TEV site); blunt.
For the molecule B2, the binding result is on record as “binds”.

In a further data set the target is T3, Arid5a ARID49-152. The data set can be described thus: NMR; 2-fold RNA; 20 mM Bis-Tris pH 6.5, 150 mM NaCl, 2 mM TCEP, 0.02% NaN3; NMR at 298 K; EMSA plus 10 mM MgCl2 and 0.6 ug yeast tRNA per 20 ul, 22-24 C. The note with it: protein: recombinant; tags: cloned in pET-Trx1a (TEV site).
Regarding B3, the binding result is listed as “binds”.
Consider B4, for which the binding result is on record as “binds”.

A further data set concerns the target T4, Arid5a ARID37-183. The data set can be described thus: NMR; 0.1-fold RNA; 20 mM Bis-Tris pH 6.5, 150 mM NaCl, 2 mM TCEP, 0.02% NaN3; NMR at 298 K; EMSA plus 10 mM MgCl2 and 0.6 ug yeast tRNA per 20 ul, 22-24 C. Conditions: protein: recombinant; tags: cloned in pET-Trx1a (TEV site).
Turning to B5, the binding result is listed as “binds”.

A further data set deals with T5, Arid1a extended ARID. In words: EMSA; similar affinity to AT; 20 mM Bis-Tris pH 6.5, 150 mM NaCl, 2 mM TCEP, 0.02% NaN3; NMR at 298 K; EMSA plus 10 mM MgCl2 and 0.6 ug yeast tRNA per 20 ul, 22-24 C. Conditions: protein: recombinant; tags: cloned in pET-Trx1a (TEV site); label: 5'-fluorescein on strand 1; blunt.
Consider B6, for which the binding result is recorded as “binds”.

Another data set deals with T4, Arid5a ARID37-183. The data set can be described thus: NMR; 3.5-fold RNA; stronger than core; 20 mM Bis-Tris pH 6.5, 150 mM NaCl, 2 mM TCEP, 0.02% NaN3; NMR at 298 K; EMSA plus 10 mM MgCl2 and 0.6 ug yeast tRNA per 20 ul, 22-24 C. Conditions: protein: recombinant; tags: cloned in pET-Trx1a (TEV site); hairpin.
Turning to B7, the binding result is reported as “binds”.

The target of another data set is T4, Arid5a ARID37-183. In words: EMSA; 10 mM MgCl2, yeast tRNA; range over WT, var1, var2, var4; 20 mM Bis-Tris pH 6.5, 150 mM NaCl, 2 mM TCEP, 0.02% NaN3; NMR at 298 K; EMSA plus 10 mM MgCl2 and 0.6 ug yeast tRNA per 20 ul, 22-24 C. Conditions: protein: recombinant; tags: cloned in pET-Trx1a (TEV site); label: 5'-fluorescein on strand 1; blunt.
What is called Kd is a measure of binding affinity in units of concentration. As for B8, the Kd was about 1360 nM.
The same measure, in the same setting: then B9, with about 1360 nM.
For the molecule B10, the Kd was about 1360 nM.
With B1, the Kd is about 1360 nM.

Values taken from paper PMC11262183, “Arid5a uses disordered extensions of its core ARID domain for distinct DNA- and RNA-recognition and gene regulation”.
